Assay results published in the supplement of paper PMC10567573.

B1: SLC19A2 (parent)
chain: FASLRPSEPFLTPYLLGPDKNLTE

Variants of: B1
Experiment: protein stability index of a GFP-peptide fusion (GPS, HEK-293T) (PSI 1-6); higher = more stable
Conditions: c terminus: a fixed tail appended
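Note: lentivirally expressed fusions sorted by FACS into six bins by GFP to DsRed ratio, PSI derived from sequencing read proportions per bin multiplied by bin number.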

In order of rising protein stability index:
1. FASLRASEPFLTPYLLGPDKNLTE  1.12
2. FASLRPSEPFLTPYLLGPDCNLTE  1.18
3. FASLRPSEPFLTPYLLGPDKNLTL  1.27
4. FASLRPSEPFLVPYLLGPDKNLTE  1.28
5. FASLRPSEPFLTPYLYGPDKNLTE  1.3
6. FASLRPSEPFLTPYLLGTDKNLTE  1.4
7. FASLRPSEPFLTPYLLGPDKNLRE  1.42
8. FASLRPSEPFLTPYLLGPDTNLTE  1.45
9. FASLRHSEPFLTPYLLGPDKNLTE  1.54
10. FASLRPSEPFLTPYHLGPDKNLTE  1.55
11. FASLRPSEPFLTPYLLGRDKNLTE  1.55
12. FASLGPSEPFLTPYLLGPDKNLTE  1.57
13. FASLRPSEPFLTPYLLGPDKNLIE  1.58
14. FASLRPSEPFLTPYLLGYDKNLTE  1.61
15. FASLRPSEPFLTPYLLGPDKNLLE  1.64
16. FASLRPSEPFLTPYLLGPDKNLWE  1.65
17. FASLRPSEPFLTTYLLGPDKNLTE  1.66
18. FASLRPSEPFLTPYRLGPDKNLTE  1.68
19. FASLRPSEPFLTPYQLGPDKNLTE  1.76
20. FASLRNSEPFLTPYLLGPDKNLTE  1.76
21. FASLRPSEPFLTPYYLGPDKNLTE  1.78
22. FASLRPSEPFNTPYLLGPDKNLTE  1.78
23. FASLRPSEPFLTPYLVGPDKNLTE  1.79
24. FASLRPSEPFLAPYLLGPDKNLTE  1.79
25. FASLRPSEPFLTPYSLGPDKNLTE  1.79
26. FASLRPSEPFLTPYLQGPDKNLTE  1.8
27. FASLRLSEPFLTPYLLGPDKNLTE  1.8
28. FASLRPSEPFLTPYLLGPDKNLTT  1.8
29. FASLRPSEPFRTPYLLGPDKNLTE  1.81
30. FASLRPSEPFLTPYKLGPDKNLTE  1.84
31. FASLRPSEPFLTPYVLGPDKNLTE  1.86
32. FASLRPSEPFCTPYLLGPDKNLTE  1.86
33. FASLRPSEPFLTPYLLGPDKNLGE  1.86
34. FASLRPSEPFLTPYLLGSDKNLTE  1.87
35. FASLRPSEPFLPPYLLGPDKNLTE  1.89
36. FASLRVSEPFLTPYLLGPDKNLTE  1.9
37. FASLRPSEPFLTPYLLGPDKNRTE  1.92
38. FASLRPSEPFLMPYLLGPDKNLTE  1.93
39. FASLRPSEPFLTPYLLGPDKNLTH  1.93
40. FASLMPSEPFLTPYLLGPDKNLTE  1.94
41. FASLRPSEPFLTQYLLGPDKNLTE  1.94
42. FASLRPSEPFLTPYLLGPDKNLTK  1.96
43. FASLRPSEPFLTPYLLGPDKNCTE  1.96
44. FASLRPSEPFLDPYLLGPDKNLTE  1.97
45. FASLRPSEPFLTPYLLGPDHNLTE  1.97
46. FASLRPSEPFLTPYLLGPDMNLTE  1.98
47. FASLRPSEPFLTPYLLGCDKNLTE  1.98
48. FASLRPSEPFLTPYLLGPDKNQTE  1.99
49. FASLRPSEPFLIPYLLGPDKNLTE  2
50. FASLRPSEPFLTPYLLGQDKNLTE  2
51. FASLRPSEPFLTPYLLGDDKNLTE  2
52. FASLRPSEPFLTPYELGPDKNLTE  2.03
53. FASLRPSEPFKTPYLLGPDKNLTE  2.03
54. FASLAPSEPFLTPYLLGPDKNLTE  2.03
55. FASLRPSEPFLTPYLLGPDKNLTM  2.03
56. FASLRPSEPFLTPYLLGPDWNLTE  2.04
57. FASLSPSEPFLTPYLLGPDKNLTE  2.07
58. FASLRPSEPFLTPYLLGPDKNLTY  2.08
59. FASLRPSEPFLTPYLLGPDDNLTE  2.1
60. FASLRPSEPFLTPYLLGPDKNLTI  2.1
61. FASLRPSEPFLTPYLLGPDKNATE  2.1
62. FASLRPSEPCLTPYLLGPDKNLTE  2.11
63. FASLRPSEPLLTPYLLGPDKNLTE  2.12
64. FASLRRSEPFLTPYLLGPDKNLTE  2.12
65. FASLRPSEPFLTPYLLGKDKNLTE  2.12
66. FASLRKSEPFLTPYLLGPDKNLTE  2.13
67. FASLRPSEPFLTPYLLGPDNNLTE  2.13
68. FASLRPSEPFLTPYLLGPDANLTE  2.14
69. FASLRPSEPFLTLYLLGPDKNLTE  2.14
70. FASLRPSEPFLTPYLLGPDKNLTG  2.15
71. FASLRQSEPFLTPYLLGPDKNLTE  2.16
72. FASLRPSEPFLTPYLLGPDKNHTE  2.16
73. FASLRPSEPFLWPYLLGPDKNLTE  2.17
74. FASLRPSEPFMTPYLLGPDKNLTE  2.18
75. FASLRPSEPFLTPYLEGPDKNLTE  2.21
76. FASLRPSEPFLTPYLLGEDKNLTE  2.27
77. FASLRPSEPFDTPYLLGPDKNLTE  2.29
78. FASLRPSEPFLTPYNLGPDKNLTE  2.3
79. FASLRPSEPFLTPYLLGIDKNLTE  2.31
80. FASLQPSEPFLTPYLLGPDKNLTE  2.34
81. FASLRPSEPFLTPYLLGPDKNKTE  2.34
82. FASLRPSEPFATPYLLGPDKNLTE  2.42
83. FASLRPSEPFLTPYDLGPDKNLTE  2.43
84. FASLRPSEPFLTPYLLGPDKNLTW  2.43
85. FASLRPSEPFLTPYLLGPDKNLTF  2.45
86. FASLRPSEPFLTPYLLGPDKNLTC  2.46
87. FASLRPSEPALTPYLLGPDKNLTE  2.52
88. FASLRPSEPELTPYLLGPDKNLTE  2.66
89. FASLRTSEPFLTPYLLGPDKNLTE  2.7
90. FASLRPSEPKLTPYLLGPDKNLTE  2.72
91. FASLRPSEPFLTPYLHGPDKNLTE  2.86
92. FASLRPSEPFETPYLLGPDKNLTE  2.88
93. FASLRWSEPFLTPYLLGPDKNLTE  2.98
94. FASLRPSEPFWTPYLLGPDKNLTE  3.29
